B1: P5G10 (human anti-PscF monoclonal antibody) (antibody, V domains shown)
VH: VQLQQWGAGLLKPSETLSLTCAVYGGSFSDYYWTWIRQAPGKGLEWIGENRHRGTTNYNPSLKGRVTISVDTSKNQFTLKVTSVTAADTAVYFCARQRGSSGGAPSGLDVWGQGTTVTVSS
VL: QSVLTQPPSASGTPGQRVTISCSGASSNIGTNYVFWYQQFPGTAPKLLIYRNGHRPSGVPDRFSGSKSGASASLAISGLRSDDEADYYCATWDDSLSSQVFGGGTKLTVL
B2: P5B3 (human monoclonal antibody, IgG1) (antibody, V domains shown)
VH: EVQLVESGGGIVQPGGSLRLSCAASGFTFSSYWMHWVRQAPGKGLVWVSRINSDGSIINYADSVKGRFTISRDNAKKTLHLQMNSLRAEDTAVYYCAKDGVYDALDIWGQGTMVTVSS
VL: SYELTQPPSVSVSPGQTARITCSADALPNQYTYWYQQKPGQAPVLIMYKDSERPSGIPERFSGSSSGTTVTLTISGVQAEDEADYYCQSTDSRGTYVVFGGGTKLTVL

Key:
PscF from strain PAO1 = target: T1, PscF from strain PAO1 (Pseudomonas aeruginosa, UniProt P95434 1-85); experiment: ELISA; competition with biotinylated P5G10
T1 chain: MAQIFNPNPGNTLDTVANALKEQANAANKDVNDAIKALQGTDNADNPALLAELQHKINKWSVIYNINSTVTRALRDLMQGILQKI

biotinylated PcrV = biotinylated PcrV (Pseudomonas aeruginosa, UniProt G3XD49 1-294, biotin); experiment: BLI

| Binder | IC50 (PscF from strain PAO1) | Kd (biotinylated PcrV) |
| --- | --- | --- |
| B1 | 0.46 µg/mL | – |
| B2 | – | 0.0239 nM |

— paper PMC12912723 (2026)
